Data as given in patent US20240261333A1 (published 2024).

What was measured:
RBM39 = biological target: T1, RBM39 (human, UniProt Q14498-3 2-508, limits assumed); assay: co-IP, anti-FLAG, lysate of cells with N-FLAG B3GNT2; mass spectrometry
T1 construct: also called NP_001310351.1 (+3)
T1 sequence (looked up): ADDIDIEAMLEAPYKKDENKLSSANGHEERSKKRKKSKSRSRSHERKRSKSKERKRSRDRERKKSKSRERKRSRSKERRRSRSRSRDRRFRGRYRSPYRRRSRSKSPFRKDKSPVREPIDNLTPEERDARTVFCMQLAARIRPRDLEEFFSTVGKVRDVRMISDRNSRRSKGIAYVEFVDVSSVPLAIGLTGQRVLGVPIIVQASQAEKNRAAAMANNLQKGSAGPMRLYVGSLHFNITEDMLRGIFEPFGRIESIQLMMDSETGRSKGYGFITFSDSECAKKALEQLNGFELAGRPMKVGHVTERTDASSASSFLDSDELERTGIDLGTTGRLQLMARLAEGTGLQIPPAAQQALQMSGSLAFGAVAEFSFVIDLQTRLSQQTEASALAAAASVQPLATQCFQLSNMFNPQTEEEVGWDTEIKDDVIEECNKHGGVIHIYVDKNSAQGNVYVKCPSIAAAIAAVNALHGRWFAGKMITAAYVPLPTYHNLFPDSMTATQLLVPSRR

UBAP2L = biological target: T2, UBAP2L (human, UniProt Q14157 1-1087); assay: as above
T2 construct: also called NP_055662.3 (+3)
T2 sequence (looked up): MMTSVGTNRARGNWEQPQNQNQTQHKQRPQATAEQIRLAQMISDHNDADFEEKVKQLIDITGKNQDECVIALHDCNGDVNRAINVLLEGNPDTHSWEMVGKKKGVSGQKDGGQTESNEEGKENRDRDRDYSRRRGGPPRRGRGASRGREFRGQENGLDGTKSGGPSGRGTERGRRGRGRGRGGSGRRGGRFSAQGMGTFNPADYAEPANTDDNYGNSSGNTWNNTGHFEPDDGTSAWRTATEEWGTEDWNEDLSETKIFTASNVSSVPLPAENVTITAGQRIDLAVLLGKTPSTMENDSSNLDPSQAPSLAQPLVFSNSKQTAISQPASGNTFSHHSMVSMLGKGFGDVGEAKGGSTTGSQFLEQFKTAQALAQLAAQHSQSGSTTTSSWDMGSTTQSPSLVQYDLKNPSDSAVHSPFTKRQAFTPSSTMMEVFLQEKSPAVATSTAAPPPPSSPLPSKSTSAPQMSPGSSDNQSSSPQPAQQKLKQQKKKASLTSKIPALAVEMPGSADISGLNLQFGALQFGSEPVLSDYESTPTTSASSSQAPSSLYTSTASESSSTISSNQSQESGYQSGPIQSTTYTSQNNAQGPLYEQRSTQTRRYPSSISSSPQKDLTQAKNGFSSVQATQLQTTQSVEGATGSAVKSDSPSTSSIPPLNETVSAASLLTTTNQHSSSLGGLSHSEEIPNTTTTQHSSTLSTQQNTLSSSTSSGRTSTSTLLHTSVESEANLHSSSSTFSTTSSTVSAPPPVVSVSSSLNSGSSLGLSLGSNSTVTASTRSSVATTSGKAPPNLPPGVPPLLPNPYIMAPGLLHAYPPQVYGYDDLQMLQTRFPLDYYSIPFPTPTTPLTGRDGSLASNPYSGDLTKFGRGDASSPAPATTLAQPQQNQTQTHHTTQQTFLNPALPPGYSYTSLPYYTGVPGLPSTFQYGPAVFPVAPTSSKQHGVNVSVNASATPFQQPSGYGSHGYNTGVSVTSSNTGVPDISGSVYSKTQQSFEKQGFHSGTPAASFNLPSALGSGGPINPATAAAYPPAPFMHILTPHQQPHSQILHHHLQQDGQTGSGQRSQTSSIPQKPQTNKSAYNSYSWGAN

B1: N-terminal FLAG tagged B3GNT2 (enzyme, human, UniProt Q9NY97 1-397, looked up)
chain: MSVGRRRIKLLGILMMANVFIYFIMEVSKSSSQEKNGKGEVIIPKEKFWKISTPPEAYWNREQEKLNRQYNPILSMLTNQTGEAGRLSNISHLNYCEPDLRVTSVVTGFNNLPDRFKDFLLYLRCRNYSLLIDQPDKCAKKPFLLLAIKSLTPHFARRQAIRESWGQESNAGNQTVVRVFLLGQTPPEDNHPDLSDMLKFESEKHQDILMWNYRDTFFNLSLKEVLFLRWVSTSCPDTEFVFKGDDDVFVNTHHILNYLNSLSKTKAKDLFIGDVIHNAGPHRDKKLKYYIPEVVYSGLYPPYAGGGGFLYSGHLALRLYHITDQVHLYPIDDVYTGMCLQKLGLVPEKHKGFRTFDIEEKNKNNICSYVDLMLVHSRKPQEMIDIWSQLQSAHLKC
notes: Overexpressed in cells and pulled down from the lysate with mouse anti-FLAG antibody; also called N-FLAG B3GNT2; N-term FLAG; not shown: N-terminal FLAG tag
- co-IP mass spectrometry count (RBM39): 4
- co-IP mass spectrometry count (UBAP2L): 20
